Laboratory results as given in the supplement of paper PMC7877785.
± gives the uncertainty stated by the source.

Assay: self-splicing fitness, log relative to wild type (ln ratio); higher = more splicing; Tetrahymena group I intron in knt gene, E. coli kanamycin selection, DiMSum; sequences stand for … in CUCUCU…GGAGGGAAAAGUUAUCAGGCAUGCACCUGGUAGCUAGUCUUUAAACCAAUAGAUUGCAUCGGUUUAAAAGGCAAGACCGUCAAAUUGCGGGAAAGGGGUCAACAGCCGUUCAGUACCAAGUCUCAGGGGAAACUUUGAGAUGGCCUUGCAAAGGGUAUGGUAAUAAGCUGACGGACAUGGUCCUAACCACGCAGCCAAGUCCUAAGUCAACAGAUCUUCUGUUGAUAUGGAUGCAGUUCACAGACUAAAUGUCGGUCGGGGAAGAUGUAUUCUUCUCAUAAGAUAUAGUCGGACCUCUCCUUAAUGGGAGCUAGCGGAUGAAGUGAUGCAACACUGGAGCCGCUGGGAACUAAUUUGUAUGCGAAAGUAUAUUGAUUAGUUUUGGAGUACUCGUGGUCG
Method in brief: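 Colonies from six replicate transformations of E. coli BL21(DE3) were pooled and amplicon-sequenced on an Illumina HiSeq 2500. The library placed an intron with all eight P1ex-region nucleotides randomised inside the knt kanamycin-resistance gene on pET-22b(+), and cells grew overnight at 37°C or 30°C on LB agar with or without 25 μg/mL kanamycin (plus 100 μg/mL carbenicillin, 50 μM IPTG, 0.2% rhamnose). Fitness is the DiMSum error-weighted combination of wild-type-normalised replicate fold changes, kanamycin versus none.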

Row | Sequence | self-splicing fitness (ln) (30 °C) | self-splicing fitness (ln) (37 °C)
1 | UCUUAGCAAUAUUACGGUGG | -1.18 ± 0.13 | -1.2 ± 0.16
2 | UCUUAGCAAUAUUACGUUCU | – | -2.75 ± 0.21
3 | UGAAAGCAAUAUUACGAAAU | -3.67 ± 0.2 | -1.95 ± 0.18
4 | UGAAAGCAAUAUUACGACAG | -0.875 ± 0.1 | -0.652 ± 0.13
5 | UGAAAGCAAUAUUACGACAU | -1.26 ± 0.013 | -0.435 ± 0.032
6 | UGAAAGCAAUAUUACGAGAA | -2.32 ± 0.23 | -1.22 ± 0.15
7 | UGAAAGCAAUAUUACGAGGC | -3.66 ± 0.28 | -2.36 ± 0.21
8 | UGAAAGCAAUAUUACGAUAC | -2.87 ± 0.19 | -2.8 ± 0.33
9 | UGAAAGCAAUAUUACGAUGA | -0.217 ± 0.088 | -0.415 ± 0.1
10 | UGAAAGCAAUAUUACGAUGU | -3.04 ± 0.2 | -1.81 ± 0.21
11 | UGAAAGCAAUAUUACGAUUU | -1.08 ± 0.06 | -0.463 ± 0.077
12 | UGAAAGCAAUAUUACGCACG | -1.4 ± 0.11 | 0.111 ± 0.13
13 | UGAAAGCAAUAUUACGCAGG | -2.65 ± 0.17 | -1.42 ± 0.2
14 | UGAAAGCAAUAUUACGCCCU | -0.195 ± 0.11 | 0.295 ± 0.15
15 | UGAAAGCAAUAUUACGGCUG | 0.281 ± 0.088 | 0.316 ± 0.11
16 | UGAAAGCAAUAUUACGGGAU | -2.6 ± 0.18 | -3.48 ± 0.39
17 | UGAAAGCAAUAUUACGGGUC | – | -2.71 ± 0.25
18 | UGAAAGCAAUAUUACGUACA | -0.776 ± 0.044 | 0.0429 ± 0.066
19 | UGAAAGCAAUAUUACGUACC | -1.36 ± 0.12 | -1.61 ± 0.17
20 | UGAAAGCAAUAUUACGUAUA | -1.56 ± 0.13 | -1.28 ± 0.12
21 | UGAAAGCAAUAUUACGUCCA | 0.114 ± 0.088 | -0.497 ± 0.11
22 | UGAAAGCAAUAUUACGUGAG | -0.356 ± 0.06 | -0.158 ± 0.084
23 | UGAAAGCAAUAUUACGUGCU | -2.79 ± 0.12 | -1.32 ± 0.12
24 | UGAAAGCAAUAUUACGUUAC | -3.44 ± 0.25 | -2.35 ± 0.21

Row | Sequence | self-splicing fitness (ln) (30 °C) | self-splicing fitness (ln) (37 °C)
25 | UGAAAGCAAUAUUACGUUUC | -3.14 ± 0.34 | -2.03 ± 0.28
26 | UGACAGCAAUAUUACGAAGC | -3.56 ± 0.37 | -3.61 ± 0.39
27 | UGACAGCAAUAUUACGAAUU | -2.9 ± 0.2 | -1.53 ± 0.21
28 | UGACAGCAAUAUUACGACUU | -0.452 ± 0.068 | 0.389 ± 0.091
29 | UGACAGCAAUAUUACGAGCG | -0.264 ± 0.067 | -0.0667 ± 0.079
30 | UGACAGCAAUAUUACGAGUU | -3.89 ± 0.2 | -2.86 ± 0.19
31 | UGACAGCAAUAUUACGAUAC | -3.36 ± 0.22 | -1.61 ± 0.19
32 | UGACAGCAAUAUUACGAUCG | 0.0362 ± 0.077 | 0.761 ± 0.1
33 | UGACAGCAAUAUUACGAUUA | -0.338 ± 0.059 | 0.419 ± 0.066
34 | UGACAGCAAUAUUACGCACU | 0.279 ± 0.051 | -0.101 ± 0.059
35 | UGACAGCAAUAUUACGCAUC | -4 ± 0.27 | -1.28 ± 0.2
36 | UGACAGCAAUAUUACGCCCC | -0.414 ± 0.17 | -0.391 ± 0.26
37 | UGACAGCAAUAUUACGCCGU | -2.54 ± 0.14 | -1.85 ± 0.15
38 | UGACAGCAAUAUUACGCGCU | -0.554 ± 0.086 | -0.657 ± 0.099
39 | UGACAGCAAUAUUACGCUCC | -1.28 ± 0.13 | -0.275 ± 0.14
40 | UGACAGCAAUAUUACGCUGA | -2.69 ± 0.17 | -2.08 ± 0.24
41 | UGACAGCAAUAUUACGGAAA | -2.03 ± 0.12 | -1.75 ± 0.14
42 | UGACAGCAAUAUUACGGAAU | -4.15 ± 0.28 | -1.55 ± 0.17
43 | UGACAGCAAUAUUACGGACU | -0.289 ± 0.063 | 0.203 ± 0.078
44 | UGACAGCAAUAUUACGGCCA | -0.00432 ± 0.11 | 0.373 ± 0.13
45 | UGACAGCAAUAUUACGGCCC | -0.701 ± 0.12 | -0.967 ± 0.18
46 | UGACAGCAAUAUUACGGCUU | -0.693 ± 0.075 | -0.053 ± 0.092
47 | UGACAGCAAUAUUACGGUCC | -0.746 ± 0.18 | -0.15 ± 0.23
48 | UGACAGCAAUAUUACGUACG | -0.78 ± 0.071 | -0.016 ± 0.083
